Test results published in publication PMC6214142, “Transcription of the Human 5-Hydroxytryptamine Receptor 2B (HTR2B) Gene Is under the Regulatory Influence of the Transcription Factors NFI and RUNX1 in Human Uveal Melanoma”.

How the values were obtained:
[1] = target: NFIX (Homo sapiens, UniProt Q14938 1-502); test: EMSA; EMSA: 10 mM Hepes pH 7.9, 10% glycerol, 0.1 mM EDTA, 0.5 mM DTT, 0.25 mM PMSF, 50 mM KCl, 2 ug poly(dI:dC); Tris-glycine gels at 4 C; footprinting binding 5 min
[2] = target: NFIC (Homo sapiens, UniProt P08651 1-508); test: EMSA; EMSA: 10 mM Hepes pH 7.9, 10% glycerol, 0.1 mM EDTA, 0.5 mM DTT, 0.25 mM PMSF, 50 mM KCl, 2 ug poly(dI:dC); Tris-glycine gels at 4 C; footprinting binding 5 min at room temperature with 5 ug poly(dI:dC); settings: protein: recombinant; chain copies: 2; label: 5' 32P as probe; blunt
NFIC, sequence (P08651 whole entry): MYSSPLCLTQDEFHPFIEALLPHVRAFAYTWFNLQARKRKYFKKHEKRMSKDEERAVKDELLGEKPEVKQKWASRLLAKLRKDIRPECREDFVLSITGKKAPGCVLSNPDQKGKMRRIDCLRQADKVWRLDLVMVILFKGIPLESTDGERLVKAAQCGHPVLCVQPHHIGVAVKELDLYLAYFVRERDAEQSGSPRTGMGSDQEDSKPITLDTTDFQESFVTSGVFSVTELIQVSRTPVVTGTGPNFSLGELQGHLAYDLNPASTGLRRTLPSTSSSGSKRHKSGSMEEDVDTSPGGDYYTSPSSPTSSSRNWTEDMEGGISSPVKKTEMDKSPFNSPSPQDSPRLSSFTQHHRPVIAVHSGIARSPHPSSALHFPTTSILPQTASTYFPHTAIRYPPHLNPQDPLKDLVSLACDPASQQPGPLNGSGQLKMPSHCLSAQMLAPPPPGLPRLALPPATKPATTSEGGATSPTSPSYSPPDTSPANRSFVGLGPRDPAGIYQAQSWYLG

[3] = target: NFIB (Homo sapiens, UniProt O00712 1-420); test: as above; settings: protein: recombinant; chain copies: 2; label: 5' 32P as probe; blunt
[4] = target: NFIA (Homo sapiens, UniProt Q12857 1-509); test: as above; settings: protein: recombinant; chain copies: 2; label: 5' 32P as probe; blunt
NFIA, sequence (Q12857 whole entry): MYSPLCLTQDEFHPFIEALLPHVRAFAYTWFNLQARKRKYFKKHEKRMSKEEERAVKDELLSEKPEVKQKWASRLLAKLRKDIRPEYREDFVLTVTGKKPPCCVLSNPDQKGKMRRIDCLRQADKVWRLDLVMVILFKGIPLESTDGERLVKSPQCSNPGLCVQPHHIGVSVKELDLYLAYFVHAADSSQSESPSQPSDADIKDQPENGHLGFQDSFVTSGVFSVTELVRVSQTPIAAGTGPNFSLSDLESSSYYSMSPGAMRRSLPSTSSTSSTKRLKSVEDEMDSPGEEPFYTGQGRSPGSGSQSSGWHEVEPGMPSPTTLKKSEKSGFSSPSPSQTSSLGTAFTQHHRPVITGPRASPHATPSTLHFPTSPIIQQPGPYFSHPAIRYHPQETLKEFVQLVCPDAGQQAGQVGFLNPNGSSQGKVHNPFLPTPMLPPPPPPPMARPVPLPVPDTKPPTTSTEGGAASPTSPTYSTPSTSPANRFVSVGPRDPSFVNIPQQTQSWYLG

Measured: binding result

B1: NFI high affinity probe (dsDNA)
DNA 1: TTATTTTGGATTGAAGCCAATATGAG
DNA 2: CTCATATTGGCTTCAATCCAAAATAA
binds: [1] | [2] | [3] | [4]
